Target: the molecule itself
Assay: CW-EPR line shape of the spin label; X band, 2-45 °C, 10-112 μM, 100 mM NaCl, pH 8; spectra simulated with three components (I monomer, II and III in assemblies)

B1: spin labeled CPEB4NTD-C441S/G320C (domain or fragment, human, UniProt Q17RY0-2 1-448, looked up)
chain: MGDYGFGVLVQSNTGNKSAFPVRFHPHLQPPHHHQNATPSPAAFINNNTAANGSSAGSAWLFPAPATHNIQDEILGSEKAKSQQQEQQDPLEKQQLSPSPGQEAGILPETEKAKSEENQGDNSSENGNGKEKIRIESPVLTGFDYQEATGLGTSTQPLTSSASSLTGFSNWSAAIAPSSSTIINEDASFFHQGGVPAASANNGALLFQNFPHHVSPGFGGSFSPQIGPLSQHHPHHPHFQHHHSQHQQQRRSPASPHPPPFTHRNAAFNQLPHLANNLNKPPSPWSSYQSPSPTPSSSWSPGGGGYGGWGGSQGRDHRRCLNGGITPLNSISPLKKNFASNHIQLQKYARPSSAFAPKSWMEDSLNRADNIFPFPDRPRTFDMHSLESSLIDIMRAENDTIKARTYGRRRGQSSLFPMEDGFLDDGRGDQPLHSGLGSPHSFSHQNGE
modifications: nitroxide spin label on the introduced cysteine 320 (marked * in the paper)
notes: also called C441S/G320C CPEB4NTD mutant; source: E. coli BL21(DE3), purified using the same protocol (Ni2+-NTA, Superdex-200)
B1: binds.
